The values that follow come from publication PMC2635478 (Traffic (Copenhagen, Denmark), 2008).

One may read the stoichiometry N as the number of molecules, sites or subunits per partner or assembly.

Series [1] deals with the molecule itself. Nature of the series: SEC.
Series [2] concerns the molecule itself. Nature of the series: SEC. This is another data set of the same source. In general terms: In gel filtration, larger molecules generally elute earlier.

Where two headings read alike, the source gives them in different places.

B1: NEM-modified PITPβ (phosphatidylinositol transfer protein beta) in cytosol of NEM-treated HL60 cells (natural protein, human (endogenous in HL60), UniProt P48739 1-271, looked up)
chain: MVLIKEFRVVLPCSVQEYQVGQLYSVAEASKNETGGGEGIEVLKNEPYEKDGEKGQYTHKIYHLKSKVPAFVRMIAPEGSLVFHEKAWNAYPYCRTIVTNEYMKDDFFIKIETWHKPDLGTLENVHGLDPNTWKTVEIVHIDIADRSQVEPADYKADEDPALFQSVKTKRGPLGPNWKKELANSPDCPQMCAYKLVTIKFKWWGLQSKVENFIQKQEKRIFTNFHRQLFCWIDKWIDLTMEDIRRMEDETQKELETMRKRGSVRGTSAADV
modifications: C95 alkylated by N-ethylmaleimide (NEM)
As to B1, the “stoichiometry N” value in series [1] was determined as 2.

B2: NEM-modified PITPβ (phosphatidylinositol transfer protein beta) in cytosol of NEM-treated PC12 cells (natural protein, rat (endogenous in PC12), UniProt P53812 1-271, looked up)
chain: MVLIKEFRVVLPCSVQEYQVGQLYSVAEASKNETGGGEGIEVLKNEPYENDGEKGQYTHKIYHLKSKVPAFVRMIAPEGSLVFHEKAWNAYPYCRTIVTNEYMKDDFFIKIETWHKPDLGTLENVHGLDPNTWKTVEIVHIDIADRSQVEPADYKADEDPALFQSVKTKRGPLGPNWKKELANTPDCPKMCAYKLVTIKFKWWGLQSKVENFIQKQEKRIFTNLHRQLFCWIDKWIDLTMEDIRRMEDETQKELETMRKKGSVRGTSAADA
modifications: C95 alkylated by N-ethylmaleimide (NEM)
For the protein B2, the “stoichiometry N” value in series [2] was determined as 2.
